Assay results taken from patent publication US20220213193A1 (BROWN UNIVERSITY, published 2022).

Molecular target: T1, recombinant human (rh) CHI3L1 (human, UniProt P36222 22-383)
T1 construct: also called rhCHI311; human CHI3L1
Assay: competitive ELISA on recombinant antigen

T1 sequence (P36222 22-383 limits assumed): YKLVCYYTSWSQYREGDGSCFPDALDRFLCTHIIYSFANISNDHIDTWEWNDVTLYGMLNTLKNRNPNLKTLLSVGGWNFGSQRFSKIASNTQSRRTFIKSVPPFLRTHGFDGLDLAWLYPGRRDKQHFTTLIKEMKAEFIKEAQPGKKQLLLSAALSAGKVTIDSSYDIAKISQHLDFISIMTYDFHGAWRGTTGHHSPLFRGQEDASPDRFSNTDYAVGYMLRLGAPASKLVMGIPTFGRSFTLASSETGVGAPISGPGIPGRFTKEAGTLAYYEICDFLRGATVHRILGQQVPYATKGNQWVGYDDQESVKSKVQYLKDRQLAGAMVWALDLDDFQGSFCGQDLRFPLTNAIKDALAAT

B1: anti-human CHI3L1 antibody FRG (antibody, V domains shown)
VH: QIQLVQSGPELKKPGETVKISCKASGYTFTNYGMNWVKQAPGKGLKWMGWINTYTGEPTYADDFKGRFAFSLETSASTAYLQINNLRNEDMSTYFCARLGYGKFYVMDYWGQGTSVTVSS
VL: DVVMTQTPLSLPVSLGDQASISCRSSQSLVHSNGNTYLHWYLQKPGQSPKLLIYKVSNRFSGVPDRFSGSGSGTDFTLKISRVEAEDLGVYFCSQSTHVTWTFGGGTKLEIK
notes: also called anti-CHI3L1; α-CHI3L1
- Kd: ~1 nM
